{
  "source": "IntAct's records for PubMed 12163175",
  "parents": {"B1": {"name": "Protein ROD1 (Saccharomyces cerevisiae), Q02805 (parent)", "chain": "MFSSSSRPSKEPLLFDIRLRNLDNDVLLIKGPPDEASSVLLSGTIVLSITEPIQIKSLALRLFGRLRLNIPTVLQTVHGPHKRYSKFERNIYSHFWDDFNIKSYFQNLYDNHNNGKITISSKSSTNLAALPKRKRALSTASLISSNGQTSASKNYHTLVKGNYEFPFSAIIPGSLVESVEGLPNAAVTYALEATIERPKQPDLICKKHLRVIRTLAIDAVELSETVSVDNSWPEKVDYTISIPTKAIAIGSSTMINILIVPILKGLKLGPVRISLVENSQYCGSYGGVINQERMVAKLKLKDPLKHVAQIKKKRSLNEAADEGVDTDTGEFQDKWEVRALLNIPASLTKCSQDCRILSNIKVRHKIKFTISLLNPDGHISELRAALPVQLFISPFVPVNVKTSDVIERTLKTFGPSYQVTSQHDNSFSSKNFVDDSEEDVIFQRSASALQLSSMPTIVSGSTLNINSTDAEATAVADTTMVTSLMVPPNYGNHVYDRVYGEVTNEDETSASASSSAVESQAIHNIQNLYISDSNNSNNPILAPNPQIKIEDDSLNNCDSRGDSVNNSNLNLVNSNLTISENWNNNSPSANRYNNIINAGLNSPSLTPSFAHLSRRNSYSRQTSSTSLKNDLELTDLSRVPSYDKAMKSDMIGEDLPPAYPEEELGVQENKKIELERPQILHHKSTSSLLPLPGSSKSSNNLKRSSSRTHLSHSPLPRNNSGSSVSLQQLARNNTDSSFNLNLSFTSAKSSTGSRHFPFNMTTSFTSNSSSKNNSHFDKTDSTSDANKPREEENYTSATHNRRSRSSSVRSNNSNSPLRQGTGSFANLMEMFTKRDRS"}, "B2": {"name": "Protein ROG3 (Saccharomyces cerevisiae), P43602 (parent)", "chain": "MGFSSGKSTKKKPLLFDIRLKNVDNDVILLKGPPNEAPSVLLSGCIVLSINEPMQIKSISLRLYGKIQIDVPLERPQDASSSSLSSSPPKIRKYNKVFYNYAWDNVNLKEYLSGLRGQSGLAGSSSSSNILGTRQRAQSTSSLKSLKGSSSPSSCTLDKGNYDFPFSAILPGSLPESVESLPNCFVTYSMESVIERSKNYSDLICRKNIRVLRTISPAAVELSETVCVDNSWPDKVDYSISVPNKAVAIGSATPINISIVPLSKGLKLGSIKVVLFENYQYCDPFPPVISENRQVTELNLEDPLNESSGEFNGNGCFVNNPFFQPDHSFQDKWEIDTILQIPNSLSNCVQDCDVRSNIKVRHKLKFFIILINPDGHKSELRASLPIQLFISPFVALSIKPLSSSNLYSLFSTTNQKDENSSQEEEEEYLFSRSASVTGLELLADMRSGGSVPTISDLMTPPNYEMHVYDRLYSGSFTRTAVETSGTCTPLGSECSTVEDQQQDLEDLRIRLTKIRNQRDNLGLPPSASSAAASRSLSPLLNVPAPEDGTERILPQSALGPNSGSVPGVHSNVSPVLLSRSPAPSVSAHEVLPVPSGLNYPETQNLNKVPSYGKAMKYDIIGEDLPPSYPCAIQNVQPRKPSRVHSRNSSTTLSSSIPTSFHSSSFMSSTASPISIINGSRSSSSGVSLNTLNELTSKTSNNPSSNSMKRSPTRRRATSLAGFMGGFLSKGNKR"}},
  "data": [
    {"variants_of": "B1", "conditions": "with rsp5_yeast RSP5, P39940", "values": [
      {"variant": "P487Q;P488A", "effect of a mutation on the interaction": "disrupting interaction"}
    ]},
    {"variants_of": "B2", "conditions": "with rsp5_yeast RSP5, P39940", "values": [
      {"variant": "C487Q;T488A", "effect of a mutation on the interaction": "disrupting interaction"}
    ]}
  ]
}
